Experimental findings from US7657385B2 are described below.

This test has as its target CD81-LEL (large extracellular loop of human CD81, amino acids 113-201) (human). In words: X-ray crystal structure; dimer in the asymmetric unit.

In the case of “CD81-LEL (large extracellular loop of human CD81, amino acids 113-201) (receptor)”, the subunit interface is 986 Å^2.
